T1: GST-DCAF10 (UniProt Q5QP82 1-559)
T1 construct: DCAF10, full length; the UniProt entry is printed for the AlphaFold 3 model of the same protein; cloning and purification are in the Supplementary Methods; also called purified full-length GST-DCAF10; source: purified
T1 sequence (looked up): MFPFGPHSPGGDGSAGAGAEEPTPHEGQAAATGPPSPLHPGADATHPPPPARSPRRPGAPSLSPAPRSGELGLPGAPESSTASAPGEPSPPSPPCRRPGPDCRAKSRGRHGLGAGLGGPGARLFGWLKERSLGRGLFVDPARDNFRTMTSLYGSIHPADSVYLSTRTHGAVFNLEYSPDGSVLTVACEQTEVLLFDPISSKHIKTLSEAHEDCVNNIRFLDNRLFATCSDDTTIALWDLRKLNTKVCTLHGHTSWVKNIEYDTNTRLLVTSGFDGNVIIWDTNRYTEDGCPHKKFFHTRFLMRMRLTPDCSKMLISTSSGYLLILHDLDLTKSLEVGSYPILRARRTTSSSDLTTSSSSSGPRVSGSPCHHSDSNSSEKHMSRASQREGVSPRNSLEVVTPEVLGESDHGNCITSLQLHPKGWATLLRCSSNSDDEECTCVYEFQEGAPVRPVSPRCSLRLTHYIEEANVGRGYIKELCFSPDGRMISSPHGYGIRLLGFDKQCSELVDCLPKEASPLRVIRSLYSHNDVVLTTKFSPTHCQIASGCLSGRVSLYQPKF

T2: Ac-Lyn^G2A peptide (human, UniProt P07948 2-11, G2A)
T2 construct: Lyn, N-terminal 10-mer without the initiator Met, G2A; Lys3 spacer that carries the C-terminal biotin; also called Ac-Ala peptide; source: synthetic peptide
T2 peptide: Ac-ACIKSKGKDSKKK-biotin

B1: Nt-acetylated Lyn peptide (peptide)
peptide: Ac-GCIKSKGKDSKKK-biotin
notes: Lyn, N-terminal 10-mer without the initiator Met; Lys3 spacer that carries the C-terminal biotin; also called Nt-Ac Lyn; Ac-Lyn; source: synthetic peptide
B2: DDB1- and CUL4A-associated factor 10 (natural protein, human (endogenous in HeLa and DLD-1), UniProt Q5QP82 1-559, looked up)
chain: T1 sequence (looked up)
notes: DCAF10, endogenous protein of human cell lysates; also called DCAF10; WDR32; source: endogenous, HeLa lysate; endogenous, DLD-1 Lyn KO Flp-In T-REx cell lysate
B3: Nt-acetylated Src peptide (peptide)
peptide: Ac-GSNKSKPKDAKKK-biotin
notes: Src, N-terminal 10-mer without the initiator Met; Lys3 spacer that carries the C-terminal biotin; also called Nt-Ac Src; Ac-Src; source: synthetic peptide
B4: Nt-acetylated Fyn peptide (peptide)
peptide: Ac-GCVQCKDKEAKKK-biotin
modifications: cysteine pairing not given here
notes: Fyn, N-terminal 10-mer without the initiator Met; Lys3 spacer that carries the C-terminal biotin; also called Nt-Ac Fyn; Ac-Fyn; source: synthetic peptide

One experiment addresses T1, GST-DCAF10. As to the kind of experiment: pull-down; Nt-peptides bound to streptavidin beads incubated with purified GST-DCAF10 or GST alone; Western blots against GST, DCAF10 and streptavidin; n = 3. The conditions noted are these: both partners purified.
A further experiment deals with T2, Ac-Lyn^G2A peptide. As to the kind of experiment: affinity purification with mass spectrometry; biotinylated 10-mer Nt-peptides on magnetic streptavidin beads incubated with HeLa lysate; retained proteins digested on bead and quantified label-free by LC-MS (DIA); pairwise comparison of two peptides; n = 3. Conditions: one partner purified.
The target in experiment [1] is B1. The description is as above. The conditions noted are these: one partner purified.
In experiment [2] the target is B3. The description is as above. Conditions: one partner purified.

The values below come from PMC12775124, “CUL4A-DDB1-DCAF10 is an N-recognin for N-terminally acetylated Src kinases” (Nature Communications, 2026).

With B1, the binding result in the experiment with GST-DCAF10 is reported as “binds”.
B2: the “fold lower than the Ac-Gly peptide (Ac-Lyn^WT)” value with Ac-Lyn^G2A peptide is 15 fold. Also, the “fold stronger than Ac-THOC7” value in experiment [1] is ~57 fold. Also, the “log2 fold change (Nt-Ac against Nt-free Src peptide, Fig. 1c)” value in experiment [2] was ~5 log2.
B3: in the experiment with GST-DCAF10, the binding result is listed as “binds”.
Still for that read-out and setting: the same measure for B4: “binds”.
